Blank lines part the entries; values can stand above or below the molecule they belong to.
Legend:
[1] = molecular target: MART-1 peptide on HLA-A*02:01 (human); experiment: CD107a by flow cytometry; sorted TCR+ CD8- T cells incubated for 5 hours with peptide-loaded T2 cells. The result sentence names SEQ ID NO: 56, but the method says the cells were loaded with the analogue SEQ ID NO: 80.; full-length, on cells
[2] = molecular target: MART-1 26-35 peptide (SEQ ID NO: 56) presented by HLA-A2 on cells (human); experiment: cell-based or functional assay
[3] = molecular target: TGFβRII frameshift peptide p573 (SEQ ID NO: 1) presented by HLA-A2 on cells (human); experiment: cell-based or functional assay

EC50 of peptide [1]: 7 nM
Molecule: DMF5

EC50 of the peptide for CD107a staining of TCR+ CD8- T-cells after 5 hours with peptide-loaded HLA-A2+ T2 cells [2]: 7 nM
Molecule: MART-1-specific TCR DMF5 (on the surface of transduced T-cells)

EC50 of the peptide for CD107a staining of TCR+ CD8- T-cells after 5 hours with peptide-loaded HLA-A2+ T2 cells [3]: 2 nM
B1: Radium-1 TCR (full-length, on the surface of T-cells) (TCR, V domains shown)
V domain 1: GIQVEQSPPDLILQEGANSTLRCNFSDSVNNLQWFHQNPWGQLINLFYIPSGTKQNGRLSATTVATERYSLLYISSSQTTDSGVYFCAVNAGNMLTFGGGTRLMVKP
V domain 2: DVKVTQSSRYLVKRTGEKVFLECVQDMDHENMFWYRQDPGLGLRLIYFSYDVKMKEKGDIPEGYSVSREKKERFSLILESASTNQTSMYLCASSSGVTGELFFGEGSRLTVLE
